T1: WRN helicase core (WRN512-1213) (Gallus gallus, UniProt D3KR65 512-1213)
T1 sequence: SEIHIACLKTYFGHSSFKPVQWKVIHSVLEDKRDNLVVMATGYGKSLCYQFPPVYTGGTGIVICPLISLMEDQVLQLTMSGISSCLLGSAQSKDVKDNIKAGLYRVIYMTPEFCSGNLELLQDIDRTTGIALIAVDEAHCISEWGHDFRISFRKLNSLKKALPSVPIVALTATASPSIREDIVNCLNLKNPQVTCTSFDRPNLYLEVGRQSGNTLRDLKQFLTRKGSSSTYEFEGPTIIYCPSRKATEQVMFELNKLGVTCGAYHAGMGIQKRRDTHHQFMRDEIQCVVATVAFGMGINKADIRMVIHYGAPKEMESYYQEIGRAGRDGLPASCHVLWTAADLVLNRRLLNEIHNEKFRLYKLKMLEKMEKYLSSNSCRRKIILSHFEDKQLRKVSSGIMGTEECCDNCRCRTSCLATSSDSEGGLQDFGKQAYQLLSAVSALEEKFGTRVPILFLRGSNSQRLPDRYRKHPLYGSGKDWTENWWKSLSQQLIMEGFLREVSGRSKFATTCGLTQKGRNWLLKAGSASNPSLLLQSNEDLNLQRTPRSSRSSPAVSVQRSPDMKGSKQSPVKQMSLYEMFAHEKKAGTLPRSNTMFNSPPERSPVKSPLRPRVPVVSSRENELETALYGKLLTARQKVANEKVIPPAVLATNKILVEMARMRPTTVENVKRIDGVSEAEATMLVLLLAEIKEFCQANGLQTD

B1: 16nt-FAM (ssDNA)
DNA: CTCTGCTCGACGGATT
B2: 16bp-FAM (dsDNA)
DNA 1: CTCTGCTCGACGGATT
DNA 2: AATCCGTCGAGCAGAG

What was measured:
[1] = target: T1, WRN helicase core (WRN512-1213); experiment: fluorescence polarization anisotropy; 0.2 mM ATPgS; 5 mM Mg2+; Hill coefficient 1; 20 mM Tris-HCl pH 8.0, 50 mM KCl, 5 mM MgCl2, 5 nM DNA, 25 C, 5 min equilibration; details: protein: recombinant; tags: 6xHis-SUMO at N-terminus, cleaved with Ulp; label: fluorescein (FAM), position by colour only; single strand
[2] = target: T1, WRN helicase core (WRN512-1213); experiment: fluorescence polarization anisotropy; 0.2 mM ADP; 5 mM Mg2+; Hill coefficient 1; 20 mM Tris-HCl pH 8.0, 50 mM KCl, 5 mM MgCl2, 5 nM DNA, 25 C, 5 min equilibration; details: protein: recombinant; tags: 6xHis-SUMO at N-terminus, cleaved with Ulp; label: fluorescein (FAM), position by colour only; single strand
[3] = target: T1, WRN helicase core (WRN512-1213); experiment: fluorescence polarization anisotropy; 5 mM Mg2+; no nucleotide stated; Hill coefficient 2; 20 mM Tris-HCl pH 8.0, 50 mM KCl, 5 mM MgCl2, 5 nM DNA, 25 C, 5 min equilibration; details: protein: recombinant; tags: 6xHis-SUMO at N-terminus, cleaved with Ulp; label: fluorescein (FAM), position by colour only; blunt

Row | Binder | Kd [1] [nM] | Kd [2] [nM] | Kd [3] [nM]
1 | B1 | 76.6 ± 4.2 | 141 ± 10.5 | 
2 | B2 |  |  | 32.2 ± 2.8
